In patent publication US20200079833A1 (AstraZeneca / MedImmune, published 2020):
Starred links: 1 amine or outer side, 2 acyl side, 3 side chain; linkers in the order of their positions; H or OH if unused. Non-standard residues stand in square brackets, D forms with d. Groups on a side chain read outwards from the residue. Primed or numbered codes have the meaning given here. No end group written: not given here. *: point of attachment. Dodecylbenzoate = dodecylbenzoyl lipid group; γGlu = O=C(O)[C@H](CCC(=O)[*:2])N[*:1]; Stearoyl = CCCCCCCCCCCCCCCCCC(=O)*; αMeF = C[C@](N)(Cc1ccccc1)C(=O)O; αMeK = C[C@](N)(CCCCN)C(=O)O; Lauroyl = CCCCCCCCCCCC(=O)*; αMeS = C[C@](N)(CO)C(=O)O; PEG2′ = not defined here; Aib = CC(C)(N)C(=O)O; Ahx = NCCCCCC(=O)O

T1: GLP-1R (INS1e assay) (UniProt P32301 22-463, limits assumed)
T1 sequence (looked up): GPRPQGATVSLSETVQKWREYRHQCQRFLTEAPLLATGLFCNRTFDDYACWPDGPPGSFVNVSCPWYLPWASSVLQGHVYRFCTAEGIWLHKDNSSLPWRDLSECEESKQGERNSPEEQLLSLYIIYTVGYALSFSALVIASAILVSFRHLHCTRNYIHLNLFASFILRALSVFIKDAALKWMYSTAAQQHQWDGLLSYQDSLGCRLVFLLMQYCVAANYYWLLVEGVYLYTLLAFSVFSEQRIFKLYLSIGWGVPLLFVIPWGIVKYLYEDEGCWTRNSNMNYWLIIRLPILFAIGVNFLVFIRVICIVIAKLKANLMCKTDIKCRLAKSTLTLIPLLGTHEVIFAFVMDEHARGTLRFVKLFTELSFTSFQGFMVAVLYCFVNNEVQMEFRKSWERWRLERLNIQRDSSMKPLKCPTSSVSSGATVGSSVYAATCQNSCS


Molecular target: T1, GLP-1R (INS1e assay)
Experiment: cell-based or functional assay

Row | Binder | INS1e assay EC50 GLP-1 R n1 [nM] | INS1e assay EC50 GLP-1 R n2 [nM] | INS1e assay EC50 Mean pM GLP-1R [pM]
1 | H[Aib]EGS[αMeF]TSDV[αMeS]S[αMeF]LEGEAA[αMeK]E[αMeF]IA[αMeF]VVK([PEG2′-Lauroyl])GG-NH2 [SEQ ID NO 170] | 0.548 | 0.376 | 462
2 | H[Aib]EGS[αMeF]TSDV[αMeS]S[αMeF]LEGEAA[αMeK]E[αMeF]IA[αMeF]VVK([Ahx-Ahx-Lauroyl])GG-NH2 (N-terminus assumed; SMILES CCCCCCCCCCCC(=O)NCCCCCC(=O)NCCCCCC(=O)NCCCC[C@H](NC(=O)[C@@H](NC(=O)[C@@H](NC(=O)[C@](C)(Cc1ccccc1)NC(=O)[C@H](C)NC(=O)[C@@H](NC(=O)[C@](C)(Cc1ccccc1)NC(=O)[C@H](CCC(=O)O)NC(=O)[C@](C)(CCCCN)NC(=O)[C@H](C)NC(=O)[C@H](C)NC(=O)[C@H](CCC(=O)O)NC(=O)CNC(=O)[C@H](CCC(=O)O)NC(=O)[C@H](CC(C)C)NC(=O)[C@](C)(Cc1ccccc1)NC(=O)[C@H](CO)NC(=O)[C@](C)(CO)NC(=O)[C@@H](NC(=O)[C@H](CC(=O)O)NC(=O)[C@H](CO)NC(=O)[C@@H](NC(=O)[C@](C)(Cc1ccccc1)NC(=O)[C@H](CO)NC(=O)CNC(=O)[C@H](CCC(=O)O)NC(=O)C(C)(C)NC(=O)[C@@H](N)Cc1c[nH]cn1)[C@@H](C)O)C(C)C)[C@@H](C)CC)C(C)C)C(C)C)C(=O)NCC(=O)NCC(N)=O) [SEQ ID NO 168] | 0.189 | 0.462 | 326
3 | H[Aib]EGS[αMeF]TSDV[αMeS]S[αMeF]LEGEAA[αMeK]E[αMeF]IA[αMeF]VVK([Ahx-Ahx-Dodecylbenzoate])GG-NH2 [SEQ ID NO 177] | 0.266 | 0.755 | 510
4 | H[Aib]EGS[αMeF]TSDV[αMeS]S[αMeF]LEGEAA[αMeK]E[αMeF]IA[αMeF]VVK([Ahx-Ahx-Ahx-Dodecylbenzoate])GG-NH2 [SEQ ID NO 178] | 0.31 | 0.258 | 284
5 | H[Aib]EGS[αMeF]TSDV[αMeS]S[αMeF]LEGEAA[αMeK]E[αMeF]IA[αMeF]VVK([Ahx-Ahx-Ahx-Lauroyl])GG-NH2 (N-terminus assumed; SMILES CCCCCCCCCCCC(=O)NCCCCCC(=O)NCCCCCC(=O)NCCCCCC(=O)NCCCC[C@H](NC(=O)[C@@H](NC(=O)[C@@H](NC(=O)[C@](C)(Cc1ccccc1)NC(=O)[C@H](C)NC(=O)[C@@H](NC(=O)[C@](C)(Cc1ccccc1)NC(=O)[C@H](CCC(=O)O)NC(=O)[C@](C)(CCCCN)NC(=O)[C@H](C)NC(=O)[C@H](C)NC(=O)[C@H](CCC(=O)O)NC(=O)CNC(=O)[C@H](CCC(=O)O)NC(=O)[C@H](CC(C)C)NC(=O)[C@](C)(Cc1ccccc1)NC(=O)[C@H](CO)NC(=O)[C@](C)(CO)NC(=O)[C@@H](NC(=O)[C@H](CC(=O)O)NC(=O)[C@H](CO)NC(=O)[C@@H](NC(=O)[C@](C)(Cc1ccccc1)NC(=O)[C@H](CO)NC(=O)CNC(=O)[C@H](CCC(=O)O)NC(=O)C(C)(C)NC(=O)[C@@H](N)Cc1c[nH]cn1)[C@@H](C)O)C(C)C)[C@@H](C)CC)C(C)C)C(C)C)C(=O)NCC(=O)NCC(N)=O) [SEQ ID NO 169] | 0.0931 | 0.269 | 181
6 | H[Aib]EGS[αMeF]TSDV[αMeS]S[αMeF]LEGEAA[αMeK]E[αMeF]IA[αMeF]VVK([PEG2′-PEG2′-PEG2′-Lauroyl])GG-NH2 [SEQ ID NO 172] | 0.0396 | 0.028 | 33.8
7 | H[Aib]EGS[αMeF]TSDV[αMeS]S[αMeF]LEGEAA[αMeK]E[αMeF]IA[αMeF]VVK([PEG2′-PEG2′-Lauroyl])GG-NH2 [SEQ ID NO 171] | 0.0817 | 0.175 | 128

Continued, values first:

Row | INS1e assay EC50 GLP-1 R n1 [nM] | INS1e assay EC50 GLP-1 R n2 [nM] | INS1e assay EC50 Mean pM GLP-1R [pM] | Binder
8 | 0.0678 | 0.0506 | 59.2 | H[Aib]EGS[αMeF]TSDV[αMeS]S[αMeF]LEGEAA[αMeK]E[αMeF]IA[αMeF]VVK([PEG2′-PEG2′-Dodecylbenzoate])GG-NH2 [SEQ ID NO 180]
9 | 0.0397 | 0.0485 | 44.1 | H[Aib]EGS[αMeF]TSDV[αMeS]S[αMeF]LEGEAA[αMeK]E[αMeF]IA[αMeF]VVK([PEG2′-PEG2′-PEG2′-Stearoyl])GG-NH2 [SEQ ID NO 190]
10 | 0.114 | 0.173 | 144 | H[Aib]EGS[αMeF]TSDV[αMeS]S[αMeF]LEGEAA[αMeK]E[αMeF]IA[αMeF]VVK([PEG2′-PEG2′-Stearoyl])GG-NH2 [SEQ ID NO 189]
11 | 0.336 | 0.345 | 340 | H[Aib]EGS[αMeF]TSDV[αMeS]S[αMeF]LEGEAA[αMeK]E[αMeF]IA[αMeF]VVK([PEG2′-Dodecylbenzoate])GG-NH2 [SEQ ID NO 179]
12 | 0.787 | 2.13 | 1460 | H[Aib]EGS[αMeF]TSDV[αMeS]S[αMeF]LEGEAA[αMeK]E[αMeF]IA[αMeF]VVK([PEG2′-PEG2′-PEG2′-Stearoyl])GG-NH2 [SEQ ID NO 199]
13 | 1.38 | 0.89 | 1140 | H[Aib]EGS[αMeF]TSDV[αMeS]S[αMeF]LEGEAA[αMeK]E[αMeF]IA[αMeF]VVK([PEG2′-PEG2′-Stearoyl])GG-NH2 [SEQ ID NO 198]
14 | 0.351 | 0.501 | 426 | H[Aib]EGS[αMeF]TSDV[αMeS]S[αMeF]LEGEAA[αMeK]E[αMeF]IA[αMeF]VVK([γGlu-γGlu-γGlu-Stearoyl])GG-NH2 (N-terminus assumed; SMILES CCCCCCCCCCCCCCCCCC(=O)N[C@@H](CCC(=O)N[C@@H](CCC(=O)N[C@@H](CCC(=O)NCCCC[C@H](NC(=O)[C@@H](NC(=O)[C@@H](NC(=O)[C@](C)(Cc1ccccc1)NC(=O)[C@H](C)NC(=O)[C@@H](NC(=O)[C@](C)(Cc1ccccc1)NC(=O)[C@H](CCC(=O)O)NC(=O)[C@](C)(CCCCN)NC(=O)[C@H](C)NC(=O)[C@H](C)NC(=O)[C@H](CCC(=O)O)NC(=O)CNC(=O)[C@H](CCC(=O)O)NC(=O)[C@H](CC(C)C)NC(=O)[C@](C)(Cc1ccccc1)NC(=O)[C@H](CO)NC(=O)[C@](C)(CO)NC(=O)[C@@H](NC(=O)[C@H](CC(=O)O)NC(=O)[C@H](CO)NC(=O)[C@@H](NC(=O)[C@](C)(Cc1ccccc1)NC(=O)[C@H](CO)NC(=O)CNC(=O)[C@H](CCC(=O)O)NC(=O)C(C)(C)NC(=O)[C@@H](N)Cc1c[nH]cn1)[C@@H](C)O)C(C)C)[C@@H](C)CC)C(C)C)C(C)C)C(=O)NCC(=O)NCC(N)=O)C(=O)O)C(=O)O)C(=O)O) [SEQ ID NO 184]
15 | 0.0453 | 0.114 | 79.7 | H[Aib]EGS[αMeF]TSDV[αMeS]S[αMeF]LEGEAA[αMeK]E[αMeF]IA[αMeF]VVK([PEG2′-PEG2′-PEG2′-Dodecylbenzoate])GG-NH2 [SEQ ID NO 181]
